# Reference: patent US20200131270A1 (NATIONAL UNIVERSITY CORPORATION HOKKAIDO UNIVERSITY, published 2020)
# B1: canine PD-L1-His (ligand)
# chain: FTITVSKDLYVVEYGGNVTMECKFPVEKQLNLFALIVYWEMEDKKIIQFVNGKEDLKVQHSSYSQRAQLLKDQLFLGKAALQITDVRLQDAGVYCCLIGYGGADYKRITLKVHAPYRNISQRISVDPVTSEHELMCQAEGYPEAEVIWTSSDHRVLSGKTTITNSNREEKLFNVTSTLNINATANEIFYCTFQRSGPEENNTAELVIPERLPVPASERTH
# Experiments:
# [1] = target: T1, canine CD80-Ig (canine; rabbit); assay: SPR (Biacore X100): cPD-L1-His captured by anti-histidine antibody on CM5 chip, canine CD80-Ig as analyte
# T1 construct: extracellular domain;domain: Fc; also called cCD80-Ig; cCD80
# [2] = target: T2, canine PD-1-Ig (canine; rabbit); assay: SPR (Biacore X100): cPD-L1-His captured by anti-histidine antibody on CM5 chip, canine PD-1-Ig as analyte
# T2 construct: extracellular domain;domain: Fc; also called cPD-1-Ig; cPD-1
binder,measurement,setting,value
B1,Kd,[1],24.3 nM
same,Kd,[2],25.4 nM
